Measurements reported in patent publication US20080267985A1.

How the values were obtained:
[1] = molecular target: IgE antibodies from sera of grass pollen allergy sufferers (human); test: cell-based or functional assay
[2] = molecular target: IgE antibodies from sera of grass pollen allergy sufferers (human); test: EAST inhibition test, four individual sera, plate-bound nPhl p 1, inhibitor up to 5 µg/ml

Binder | allergenic efficacy from A50 values, basophil activation test (CD203c), against reference nPhl p 1 [1] | percent of the maximum inhibitory action of nPhl p 1 [2]
Phl p 1 NoCys Δ1-6, 115-119, 213-220 (histidine fusion protein) (protein, not shown: small tags and cut ends) GPNITATYGDKWLDAKSTWYGKPTAAGPKDNGGASGYKDVDKPPFSGMTGSGNTPIFKSGRGSGSSFEIKSTKPEASSGEPVVVHITDDNEEPIAAYHFDLSGIAFGSDEQKLRSAGEVEIQFRRVKSKYPEGTKVTFHVEKGSNPNYLALLVKFVAGDGDVVAVDIKEKGKDKWIALKESWGAIWRIDTPEVLKGPFTVRGEAKDVIPEGWKADTAYESK | > 1000 fold | –
Phl p 1 NoCys Δ213-220 (histidine fusion protein) (protein, not shown: small tags and cut ends) IPKVPPGPNITATYGDKWLDAKSTWYGKPTAAGPKDNGGASGYKDVDKPPFSGMTGSGNTPIFKSGRGSGSSFEIKSTKPEASSGEPVVVHITDDNEEPIAAYHFDLSGIAFGSMAKKGDEQKLRSAGEVEIQFRRVKSKYPEGTKVTFHVEKGSNPNYLALLVKFVAGDGDVVAVDIKEKGKDKWIALKESWGAIWRIDTPEVLKGPFTVRGEAKDVIPEGWKADTAYESK | 100 to 1000 fold | –
Phl p 1 NoCys (histidine fusion protein) (protein, not shown: small tags and cut ends) IPKVPPGPNITATYGDKWLDAKSTWYGKPTAAGPKDNGGASGYKDVDKPPFSGMTGSGNTPIFKSGRGSGSSFEIKSTKPEASSGEPVVVHITDDNEEPIAAYHFDLSGIAFGSMAKKGDEQKLRSAGEVEIQFRRVKSKYPEGTKVTFHVEKGSNPNYLALLVKFVAGDGDVVAVDIKEKGKDKWIALKESWGAIWRIDTPEVLKGPFTVRYTTEGGTKGEAKDVIPEGWKADTAYESK | – | 20 to 50%
